Laboratory results as given in the supplement of paper PMC10065799, “High-throughput profiling of sequence recognition by tyrosine kinases and SH2 domains using bacterial peptide display” (eLife, 2023).

Legend:
FGFR1 = FGFR1 (UniProt P11362); assay: phosphorylation enrichment, bacterial display (enrichment ratio); higher = better substrate or ligand; peptides without Tyr show the background
EPHB1 = EPHB1 (UniProt P54762); assay: as above
Fyn = Fyn (UniProt P06241); assay: as above
EPHB2 = EPHB2 (UniProt P29323); assay: as above
Hck = Hck (UniProt P08631); assay: as above
AncSZ = assay: as above
MERTK = MERTK (UniProt Q12866); assay: as above
Fer (mouse) = assay: as above
FGFR3 = FGFR3 (UniProt P22607); assay: as above
Fes = Fes (UniProt P07332); assay: as above
Jak2 = Jak2 (UniProt O60674); assay: as above
c-Abl (mouse) = assay: as above
c-Src = assay: as above
Grb2 SH2 = Grb2 SH2 (UniProt P62993); assay: SH2 binding enrichment of the phosphorylated peptide, bacterial display (enrichment ratio); higher = better substrate or ligand; peptides without Tyr show the background
c-Src SH2 = assay: as above
SHP2-C SH2 = assay: as above
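Throughout, for SH2 binding enrichment of the phosphorylated peptide, bacterial display: peptide library displayed on the E. coli surface as eCPX fusions, selected cells deep-sequenced, score is each peptide's frequency after selection divided by its frequency in the input.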
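Throughout, for phosphorylation enrichment, bacterial display: 11-residue human phosphosite peptides and single-mutation variants displayed on the E. coli surface, counted by deep sequencing, each peptide's frequency after selection divided by its frequency in the unselected input library; frequency after pTyr selection over input frequency; kinase dosed for 20-30% of maximal phosphorylation in three min.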

Sequence of MERTK (Q12866 whole entry, looked up): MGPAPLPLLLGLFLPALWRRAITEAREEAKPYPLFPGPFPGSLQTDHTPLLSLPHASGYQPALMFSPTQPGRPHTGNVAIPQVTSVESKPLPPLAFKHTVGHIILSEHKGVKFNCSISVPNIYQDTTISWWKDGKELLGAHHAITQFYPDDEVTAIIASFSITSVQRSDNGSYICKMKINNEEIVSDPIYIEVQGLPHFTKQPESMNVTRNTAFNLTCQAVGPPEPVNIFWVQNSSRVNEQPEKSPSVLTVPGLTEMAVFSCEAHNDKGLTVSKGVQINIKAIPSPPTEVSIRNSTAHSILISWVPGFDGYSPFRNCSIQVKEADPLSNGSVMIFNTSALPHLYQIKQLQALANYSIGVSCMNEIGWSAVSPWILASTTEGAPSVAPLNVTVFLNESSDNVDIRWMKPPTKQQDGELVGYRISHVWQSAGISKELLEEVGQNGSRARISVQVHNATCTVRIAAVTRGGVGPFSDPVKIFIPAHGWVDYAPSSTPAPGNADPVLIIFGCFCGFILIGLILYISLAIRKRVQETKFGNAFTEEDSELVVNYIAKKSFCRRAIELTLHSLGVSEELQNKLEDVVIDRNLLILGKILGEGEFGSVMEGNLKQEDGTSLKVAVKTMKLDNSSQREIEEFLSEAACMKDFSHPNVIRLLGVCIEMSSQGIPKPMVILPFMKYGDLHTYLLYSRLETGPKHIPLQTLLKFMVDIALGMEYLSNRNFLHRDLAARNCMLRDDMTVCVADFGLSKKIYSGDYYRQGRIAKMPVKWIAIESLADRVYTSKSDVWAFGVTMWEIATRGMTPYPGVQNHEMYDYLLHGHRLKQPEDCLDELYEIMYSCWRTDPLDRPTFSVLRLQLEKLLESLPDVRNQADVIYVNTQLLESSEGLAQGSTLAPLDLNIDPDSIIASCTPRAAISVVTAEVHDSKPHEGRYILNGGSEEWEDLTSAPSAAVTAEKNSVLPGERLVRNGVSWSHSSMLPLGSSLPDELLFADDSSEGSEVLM
Sequence of Jak2 (O60674 whole entry, looked up): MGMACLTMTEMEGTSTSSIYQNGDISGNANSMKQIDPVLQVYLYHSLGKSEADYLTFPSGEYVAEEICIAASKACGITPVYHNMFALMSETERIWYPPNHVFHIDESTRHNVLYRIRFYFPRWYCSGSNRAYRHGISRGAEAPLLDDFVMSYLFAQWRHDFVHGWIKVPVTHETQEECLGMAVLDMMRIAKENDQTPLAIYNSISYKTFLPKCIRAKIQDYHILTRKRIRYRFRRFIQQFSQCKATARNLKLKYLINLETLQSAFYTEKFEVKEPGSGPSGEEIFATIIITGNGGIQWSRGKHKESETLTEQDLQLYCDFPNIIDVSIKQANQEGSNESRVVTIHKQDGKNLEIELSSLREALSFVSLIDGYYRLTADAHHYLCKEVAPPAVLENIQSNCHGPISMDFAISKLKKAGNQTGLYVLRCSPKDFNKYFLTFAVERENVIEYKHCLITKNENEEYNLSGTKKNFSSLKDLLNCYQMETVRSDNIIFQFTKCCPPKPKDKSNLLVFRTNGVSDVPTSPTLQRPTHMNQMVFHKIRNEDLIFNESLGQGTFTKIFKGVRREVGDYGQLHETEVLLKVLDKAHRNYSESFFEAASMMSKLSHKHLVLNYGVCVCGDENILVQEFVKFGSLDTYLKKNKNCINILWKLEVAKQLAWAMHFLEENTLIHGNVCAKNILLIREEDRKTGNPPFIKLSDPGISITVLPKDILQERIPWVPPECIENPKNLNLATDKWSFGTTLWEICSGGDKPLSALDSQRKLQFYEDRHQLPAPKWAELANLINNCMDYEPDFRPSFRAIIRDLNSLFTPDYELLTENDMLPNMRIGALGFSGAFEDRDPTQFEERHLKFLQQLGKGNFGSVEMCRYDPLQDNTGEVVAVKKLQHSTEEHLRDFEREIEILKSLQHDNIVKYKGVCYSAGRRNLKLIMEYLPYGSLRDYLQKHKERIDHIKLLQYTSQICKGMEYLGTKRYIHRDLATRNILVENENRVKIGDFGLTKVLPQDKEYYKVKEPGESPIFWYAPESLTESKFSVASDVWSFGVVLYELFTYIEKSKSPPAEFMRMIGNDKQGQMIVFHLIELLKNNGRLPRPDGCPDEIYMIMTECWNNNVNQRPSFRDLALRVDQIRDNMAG
Sequence of Fes (P07332 whole entry, looked up): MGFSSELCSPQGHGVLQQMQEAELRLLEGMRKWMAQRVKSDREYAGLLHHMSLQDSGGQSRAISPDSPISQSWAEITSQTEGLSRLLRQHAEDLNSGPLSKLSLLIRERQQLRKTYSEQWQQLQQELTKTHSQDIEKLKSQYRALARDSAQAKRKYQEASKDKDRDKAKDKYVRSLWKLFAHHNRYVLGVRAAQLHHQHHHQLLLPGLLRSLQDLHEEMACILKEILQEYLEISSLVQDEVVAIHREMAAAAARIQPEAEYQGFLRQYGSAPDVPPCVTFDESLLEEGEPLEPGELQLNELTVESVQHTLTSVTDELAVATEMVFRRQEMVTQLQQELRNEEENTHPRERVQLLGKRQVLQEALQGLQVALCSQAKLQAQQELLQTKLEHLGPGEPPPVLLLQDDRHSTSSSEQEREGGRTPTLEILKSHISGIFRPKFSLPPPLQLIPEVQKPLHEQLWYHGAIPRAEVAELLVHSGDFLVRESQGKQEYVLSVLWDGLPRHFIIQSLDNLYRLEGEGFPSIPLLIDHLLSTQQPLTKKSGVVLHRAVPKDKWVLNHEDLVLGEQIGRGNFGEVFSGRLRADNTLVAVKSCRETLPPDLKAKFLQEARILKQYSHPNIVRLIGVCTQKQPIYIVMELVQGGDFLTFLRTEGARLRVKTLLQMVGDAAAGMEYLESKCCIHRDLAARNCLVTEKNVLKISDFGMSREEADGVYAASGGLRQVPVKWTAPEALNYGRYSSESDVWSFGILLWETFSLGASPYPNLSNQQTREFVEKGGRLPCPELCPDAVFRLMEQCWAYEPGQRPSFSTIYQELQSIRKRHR
Sequence of Fyn (P06241 whole entry, looked up): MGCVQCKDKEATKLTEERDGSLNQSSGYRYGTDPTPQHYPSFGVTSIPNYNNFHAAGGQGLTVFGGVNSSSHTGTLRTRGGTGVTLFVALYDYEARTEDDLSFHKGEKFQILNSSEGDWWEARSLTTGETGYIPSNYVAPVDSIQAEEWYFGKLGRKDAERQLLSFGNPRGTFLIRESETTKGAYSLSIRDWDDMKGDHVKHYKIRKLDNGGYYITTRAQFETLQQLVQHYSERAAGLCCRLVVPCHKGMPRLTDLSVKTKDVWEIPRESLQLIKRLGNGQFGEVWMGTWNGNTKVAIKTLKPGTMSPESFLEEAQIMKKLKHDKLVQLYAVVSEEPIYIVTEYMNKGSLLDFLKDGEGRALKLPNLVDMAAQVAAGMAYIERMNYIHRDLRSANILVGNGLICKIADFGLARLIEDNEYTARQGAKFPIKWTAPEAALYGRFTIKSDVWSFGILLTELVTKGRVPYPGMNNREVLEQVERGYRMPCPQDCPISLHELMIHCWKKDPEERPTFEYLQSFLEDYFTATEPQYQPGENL
Sequence of FGFR1 (P11362 whole entry, looked up): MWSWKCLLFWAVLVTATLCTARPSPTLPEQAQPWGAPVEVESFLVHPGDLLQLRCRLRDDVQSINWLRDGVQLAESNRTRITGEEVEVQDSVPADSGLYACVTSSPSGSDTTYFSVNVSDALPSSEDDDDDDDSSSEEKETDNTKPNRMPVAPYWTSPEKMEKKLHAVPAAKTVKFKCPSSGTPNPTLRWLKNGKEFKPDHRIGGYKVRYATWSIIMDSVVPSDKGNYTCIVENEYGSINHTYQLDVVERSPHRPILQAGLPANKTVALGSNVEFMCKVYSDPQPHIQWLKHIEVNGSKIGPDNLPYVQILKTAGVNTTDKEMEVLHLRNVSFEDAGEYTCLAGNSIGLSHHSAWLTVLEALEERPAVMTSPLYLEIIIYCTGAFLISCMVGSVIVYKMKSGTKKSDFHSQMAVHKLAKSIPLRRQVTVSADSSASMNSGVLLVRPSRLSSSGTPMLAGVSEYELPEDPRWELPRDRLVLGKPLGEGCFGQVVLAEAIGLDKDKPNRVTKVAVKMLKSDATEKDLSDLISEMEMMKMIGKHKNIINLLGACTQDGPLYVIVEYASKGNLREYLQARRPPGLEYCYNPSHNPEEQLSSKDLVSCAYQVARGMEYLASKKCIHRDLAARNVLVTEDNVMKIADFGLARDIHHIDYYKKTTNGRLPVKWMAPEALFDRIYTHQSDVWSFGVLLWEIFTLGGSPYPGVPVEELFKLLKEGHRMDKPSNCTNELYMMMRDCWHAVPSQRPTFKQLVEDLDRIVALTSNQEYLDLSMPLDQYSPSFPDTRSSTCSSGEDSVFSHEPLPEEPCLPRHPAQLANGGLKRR
Sequence of Grb2 SH2 (P62993 whole entry, looked up): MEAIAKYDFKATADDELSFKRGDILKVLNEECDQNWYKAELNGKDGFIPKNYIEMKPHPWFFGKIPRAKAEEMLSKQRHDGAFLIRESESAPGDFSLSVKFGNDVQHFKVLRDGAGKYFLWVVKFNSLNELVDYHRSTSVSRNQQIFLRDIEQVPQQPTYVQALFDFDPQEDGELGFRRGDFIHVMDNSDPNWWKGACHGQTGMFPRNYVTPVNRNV
Sequence of Hck (P08631 whole entry, looked up): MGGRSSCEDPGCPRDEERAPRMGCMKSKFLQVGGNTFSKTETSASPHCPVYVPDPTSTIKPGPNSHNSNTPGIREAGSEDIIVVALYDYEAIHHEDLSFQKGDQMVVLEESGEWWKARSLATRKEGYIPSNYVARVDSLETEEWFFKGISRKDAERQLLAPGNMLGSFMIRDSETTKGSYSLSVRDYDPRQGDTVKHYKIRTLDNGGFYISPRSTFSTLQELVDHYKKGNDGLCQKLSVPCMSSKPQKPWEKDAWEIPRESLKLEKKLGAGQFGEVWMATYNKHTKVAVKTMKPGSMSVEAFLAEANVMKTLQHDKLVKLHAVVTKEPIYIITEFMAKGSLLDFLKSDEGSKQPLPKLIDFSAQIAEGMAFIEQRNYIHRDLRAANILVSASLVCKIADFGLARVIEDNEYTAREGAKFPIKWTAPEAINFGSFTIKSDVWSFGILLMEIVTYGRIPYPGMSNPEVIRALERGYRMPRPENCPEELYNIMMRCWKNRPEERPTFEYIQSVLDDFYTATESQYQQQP

Row | Sequence | phosphorylation enrichment (FGFR1) | phosphorylation enrichment (EPHB1) | phosphorylation enrichment (Fyn) | phosphorylation enrichment (EPHB2) | phosphorylation enrichment (Hck) | phosphorylation enrichment (AncSZ) | phosphorylation enrichment (MERTK) | phosphorylation enrichment (Fer (mouse)) | phosphorylation enrichment (FGFR3) | phosphorylation enrichment (Fes) | phosphorylation enrichment (Jak2) | phosphorylation enrichment (c-Abl (mouse)) | phosphorylation enrichment (c-Src) | SH2 binding enrichment (Grb2 SH2) | SH2 binding enrichment (c-Src SH2) | SH2 binding enrichment (SHP2-C SH2)
1 | SREALYNETDP [CACNA1A_Y794_M797T] | 0.559 | 0.67 | 0.624 | 0.642 | 0.739 | 1.16 | 0.625 | 0.663 | 0.815 | 1.37 | 1.14 | 0.996 | 0.722 | 0.89 | 0.764 | 0.641
2 | DDPRRYQKYGY [OAS1_Y362] | 0.414 | 0.368 | 0.426 | 0.544 | 0.499 | 0.598 | 0.368 | 0.403 | 0.446 | 0.591 | 0.507 | 0.592 | 0.438 | 1.05 | 0.894 | 1.3
3 | EVASVYESYQP [MAVS_Y92_Q93E] | 0.527 | 0.948 | 8.41 | 1.61 | 6.67 | 1.83 | 0.71 | 10.1 | 0.737 | 1.11 | 0.849 | 0.783 | 5.67 | 0.919 | 0.727 | 0.504
4 | NIEPVYLNMLL [ATR_Y317] | 8.65 | 6.94 | 6.88 | 5.01 | 5.48 | 1.58 | 3.46 | 10.5 | 5.81 | 1.48 | 1.36 | 4.49 | 6.42 | 0.836 | 0.402 | 1.04
5 | PEADKYCLTFA [FGG_Y300_R301C_YF] | 0.664 | 0.685 | 0.76 | 0.7 | 1.5 | 1.33 | 0.758 | 0.72 | 1.21 | 1.96 | 1.71 | 1.32 | 0.683 | 0.757 | 0.498 | 0.606
6 | SIGLGYHKDLQ [NF1_Y1169] | 0.414 | 0.34 | 0.427 | 0.629 | 0.424 | 0.528 | 0.381 | 0.368 | 0.486 | 0.536 | 0.548 | 0.487 | 0.458 | 0.776 | 0.423 | 0.639
7 | DLHGIYQKLVI | 1.65 | 4.32 | 8.38 | 3.01 | 7.64 | 0.886 | 5.38 | 11.4 | 1.31 | 1.04 | 0.82 | 3.83 | 5.84 | 0.952 | 0.597 | 0.822
8 | DVFRQYASLTG [GANAB_Y379] | 0.395 | 0.422 | 0.379 | 0.44 | 0.448 | 0.568 | 0.406 | 0.417 | 0.428 | 0.709 | 0.589 | 0.573 | 0.402 | 0.893 | 2.5 | 6.85
9 | ISISPYPAILH [IFT80_Y588_T586S] | 0.341 | 0.428 | 0.343 | 0.401 | 0.377 | 1.01 | 0.354 | 0.418 | 0.547 | 0.961 | 0.765 | 0.557 | 0.358 | 0.724 | 0.408 | 0.45
10 | CTHDLYMFMRE [FGFR3_Y724_I726F] | 1.76 | 2.23 | 0.584 | 1.04 | 1.06 | 1.43 | 1.9 | 0.994 | 1.45 | 1.56 | 1.34 | 0.992 | 2.37 | 0.71 | 0.436 | 0.636
11 | YSMGCYEIYLG [HMGCL_Y198_S201Y] | 2.06 | 4.78 | 6.34 | 8.68 | 4.95 | 4.43 | 4.69 | 5.57 | 2.19 | 2.02 | 1.41 | 1.37 | 5.79 | 0.713 | 0.627 | 0.641
12 | LEHCQYVTEKV [ALDOB_Y204] | 1.6 | 1.74 | 1.59 | 1.55 | 0.839 | 1.83 | 1.04 | 1.91 | 1.91 | 2.85 | 1.68 | 1.18 | 0.822 | 0.756 | 0.744 | 0.821
13 | IDGLEYLHSPG [STK11_Y166_Q170P] | 0.467 | 0.377 | 0.44 | 0.584 | 0.454 | 0.931 | 0.431 | 0.426 | 0.543 | 0.69 | 0.746 | 0.5 | 0.37 | 0.819 | 0.491 | 0.558
14 | VAVVQYSGTGQ [COL6A1_Y878] | 0.487 | 0.479 | 0.357 | 0.463 | 0.438 | 0.517 | 0.412 | 0.387 | 0.564 | 0.71 | 0.576 | 0.592 | 0.451 | 0.767 | 0.451 | 0.413
15 | HYGNNYTDVLQ [MACC1_Y803_R804T] | 1.14 | 5.63 | 0.635 | 1.45 | 1.12 | 1.59 | 0.935 | 2.53 | 1.05 | 1.76 | 1.35 | 2.17 | 0.816 | 0.812 | 2.72 | 3.32
16 | EYKDAYTFAAD [BRDT_Y335_K336T] | 0.511 | 0.553 | 0.833 | 0.595 | 0.548 | 1.15 | 0.51 | 0.555 | 0.74 | 1.09 | 1.11 | 0.556 | 1.29 | 0.876 | 0.61 | 0.727
17 | IALSKYGRVKW [FGF6_Y186_R191W] | 0.387 | 0.316 | 0.306 | 0.329 | 0.438 | 0.603 | 0.365 | 0.413 | 0.357 | 0.985 | 0.56 | 0.748 | 0.437 | 1.26 | 1.33 | 1.89

Row | Sequence | phosphorylation enrichment (FGFR1) | phosphorylation enrichment (EPHB1) | phosphorylation enrichment (Fyn) | phosphorylation enrichment (EPHB2) | phosphorylation enrichment (Hck) | phosphorylation enrichment (AncSZ) | phosphorylation enrichment (MERTK) | phosphorylation enrichment (Fer (mouse)) | phosphorylation enrichment (FGFR3) | phosphorylation enrichment (Fes) | phosphorylation enrichment (Jak2) | phosphorylation enrichment (c-Abl (mouse)) | phosphorylation enrichment (c-Src) | SH2 binding enrichment (Grb2 SH2) | SH2 binding enrichment (c-Src SH2) | SH2 binding enrichment (SHP2-C SH2)
18 | FVTSMYNEILM [TRPV1_Y310] | 0.641 | 0.765 | 0.647 | 0.596 | 0.957 | 1.16 | 0.756 | 3.38 | 0.932 | 1.38 | 1.39 | 0.832 | 0.693 | 1 | 7.73 | 0.941
19 | NTEGGYRCICA [CRELD1_Y328] | 0.668 | 0.496 | 0.511 | 0.644 | 0.538 | 0.976 | 0.484 | 0.498 | 0.636 | 1.02 | 0.869 | 0.947 | 0.465 | 0.97 | 0.465 | 0.489
20 | HRGHLYLAIEY [TEK_Y899_Y897H] | 0.942 | 1.08 | 0.447 | 1.16 | 0.572 | 1.51 | 0.495 | 0.741 | 1.23 | 1.56 | 0.977 | 0.599 | 0.344 | 1.36 | 0.341 | 0.654
21 | NQILPYIKELV [PPP2R1B_Y341] | 0.579 | 0.509 | 0.43 | 0.611 | 0.52 | 1.01 | 0.456 | 0.528 | 0.774 | 1.14 | 1.08 | 0.72 | 0.477 | 1.01 | 0.55 | 0.684
22 | LAVNPYGPPDL | 0.798 | 0.846 | 0.708 | 0.408 | 0.682 | 1.36 | 0.517 | 0.77 | 0.911 | 1.23 | 1.03 | 1.32 | 0.611 | 0.89 | 0.515 | 0.873
23 | KNKNRSKNILP [PTPN11_Y279_Y279S] | 0.531 | 0.686 | 0.621 | 0.568 | 0.561 | 0.732 | 0.561 | 0.486 | 0.627 | 0.749 | 0.632 | 0.771 | 0.564 | 0.777 | 0.374 | 0.39
24 | LRFEVYGGENE [STOX1_Y610_YF] | 0.621 | 0.56 | 0.539 | 0.855 | 0.5 | 1.15 | 0.454 | 0.483 | 0.774 | 1.55 | 1.29 | 0.925 | 0.5 | 0.723 | 0.536 | 0.842
25 | AVISVYDLVAF [PSEN1_Y256_V261F] | 0.72 | 9.68 | 8.21 | 9.61 | 7.4 | 1.37 | 8.85 | 16 | 0.893 | 2.23 | 1.08 | 0.887 | 5.87 | 0.912 | 0.796 | 0.837
26 | RTEAQYRFIYM [PTPN11_Y511_Q506R] | 0.683 | 0.724 | 0.423 | 0.9 | 0.635 | 1.2 | 0.691 | 0.794 | 1.1 | 1.72 | 1.5 | 1.44 | 0.754 | 0.702 | 0.392 | 0.642
27 | CITIHYNFMCN [TP53_Y234_T230I_YF] | 0.582 | 0.59 | 0.46 | 0.711 | 0.489 | 0.946 | 0.456 | 0.574 | 0.886 | 1.44 | 1.31 | 0.661 | 0.607 | 2.19 | 1.52 | 1.43
28 | KHMADYPDYKY [SOX11_Y113] | 0.453 | 0.458 | 0.407 | 0.471 | 0.401 | 0.642 | 0.322 | 0.42 | 0.632 | 0.616 | 0.442 | 0.404 | 0.4 | 0.844 | 0.519 | 0.847
29 | LDLPGYCLLRE [CCDC116_Y291_P293L] | 1.03 | 1.88 | 0.908 | 1.28 | 0.636 | 1.82 | 0.765 | 1.63 | 1.39 | 2.21 | 2.21 | 1.65 | 0.736 | 0.686 | 0.661 | 0.674
30 | SKAYAYVHFDS [PABPC5_Y149_G146A] | 0.445 | 0.549 | 0.394 | 0.461 | 0.398 | 0.967 | 0.389 | 0.477 | 0.803 | 1.19 | 1.05 | 0.789 | 0.365 | 0.893 | 4.66 | 14.2
31 | ITRDIYETDFF [INSR_Y1185_M1180I_YF] | 0.539 | 0.803 | 1.46 | 0.711 | 1.12 | 1.44 | 1.26 | 0.983 | 0.738 | 1.25 | 1.16 | 0.698 | 1.75 | 0.83 | 1.12 | 0.485
32 | DNACQYMLTDR [MYH7_Y164_Y162C] | 0.614 | 0.6 | 0.571 | 0.612 | 0.567 | 1.02 | 0.532 | 0.523 | 0.691 | 1 | 0.959 | 0.766 | 1.24 | 0.859 | 0.814 | 0.866
33 | ANNEYYFQVCA | 8.62 | 0.957 | 0.607 | 0.768 | 0.706 | 2.03 | 0.73 | 0.614 | 7.38 | 1.5 | 1.68 | 1.01 | 0.892 | 0.61 | 0.367 | 0.491
